# Measured values from patent US20190175744A1 (Merck Sharp & Dohme, published 2019).
# Starred links: 1 amine or outer side, 2 acyl side, 3 side chain; linkers in the order of their positions; H or OH if unused. Non-standard residues stand in square brackets, D forms with d. Groups on a side chain read outwards from the residue. No end group written: not given here. *: point of attachment. C16N3 = 16-azido-hexadecanoic acid, [N-]=[N+]=NCCCCCCCCCCCCCCCC(=O)*; C5N3 = 5-azido pentinoic acid, [N-]=[N+]=NCCCCC(=O)*; C18 diacid = O=C(O)CCCCCCCCCCCCCCCCC(=O)*; Lys(N3) = [N-]=[N+]=NCCCC[C@H](N)C(=O)O; γGlu = O=C(O)[C@H](CCC(=O)[*:2])N[*:1]; Met(O2) = CS(=O)(=O)CC[C@H](N)C(=O)O; Palmitoyl = CCCCCCCCCCCCCCCC(=O)*; AEEA = NCCOCCOCC(=O)O; Aib = CC(C)(N)C(=O)O
# B1: PEP27 (peptide)
# peptide: H[dS]QGTFTSDYSKYLDERAAQK([AEEA-AEEA-γGlu-C16N3])FVQWLLDT-NH2
# modifications: N-terminus assumed
# SMILES: CC(C)C[C@H](NC(=O)[C@H](Cc1ccc(O)cc1)NC(=O)[C@H](CCCCN)NC(=O)[C@H](CO)NC(=O)[C@H](Cc1ccc(O)cc1)NC(=O)[C@H](CC(=O)O)NC(=O)[C@H](CO)NC(=O)[C@@H](NC(=O)[C@H](Cc1ccccc1)NC(=O)[C@@H](NC(=O)CNC(=O)[C@H](CCC(N)=O)NC(=O)[C@@H](CO)NC(=O)[C@@H](N)Cc1c[nH]cn1)[C@@H](C)O)[C@@H](C)O)C(=O)N[C@@H](CC(=O)O)C(=O)N[C@@H](CCC(=O)O)C(=O)N[C@@H](CCCNC(=N)N)C(=O)N[C@@H](C)C(=O)N[C@@H](C)C(=O)N[C@@H](CCC(N)=O)C(=O)N[C@@H](CCCCNC(=O)COCCOCCNC(=O)COCCOCCNC(=O)CC[C@H](NC(=O)CCCCCCCCCCCCCCCN=[N+]=[N-])C(=O)O)C(=O)N[C@@H](Cc1ccccc1)C(=O)N[C@H](C(=O)N[C@@H](CCC(N)=O)C(=O)N[C@@H](Cc1c[nH]c2ccccc12)C(=O)N[C@@H](CC(C)C)C(=O)N[C@@H](CC(C)C)C(=O)N[C@@H](CC(=O)O)C(=O)N[C@H](C(N)=O)[C@@H](C)O)C(C)C
# B2: PEP28 (peptide)
# peptide: H[Aib]QGTFTSDYSKYLD[Aib]RAAQDFVQWLLDTKK([AEEA-AEEA-γGlu-C16N3])-NH2
# modifications: N-terminus assumed
# SMILES: CC(C)C[C@H](NC(=O)[C@H](Cc1c[nH]c2ccccc12)NC(=O)[C@H](CCC(N)=O)NC(=O)[C@@H](NC(=O)[C@H](Cc1ccccc1)NC(=O)[C@H](CC(=O)O)NC(=O)[C@H](CCC(N)=O)NC(=O)[C@H](C)NC(=O)[C@H](C)NC(=O)[C@H](CCCNC(=N)N)NC(=O)C(C)(C)NC(=O)[C@H](CC(=O)O)NC(=O)[C@H](CC(C)C)NC(=O)[C@H](Cc1ccc(O)cc1)NC(=O)[C@H](CCCCN)NC(=O)[C@H](CO)NC(=O)[C@H](Cc1ccc(O)cc1)NC(=O)[C@H](CC(=O)O)NC(=O)[C@H](CO)NC(=O)[C@@H](NC(=O)[C@H](Cc1ccccc1)NC(=O)[C@@H](NC(=O)CNC(=O)[C@H](CCC(N)=O)NC(=O)C(C)(C)NC(=O)[C@@H](N)Cc1c[nH]cn1)[C@@H](C)O)[C@@H](C)O)C(C)C)C(=O)N[C@@H](CC(C)C)C(=O)N[C@@H](CC(=O)O)C(=O)N[C@H](C(=O)N[C@@H](CCCCN)C(=O)N[C@@H](CCCCNC(=O)COCCOCCNC(=O)COCCOCCNC(=O)CC[C@H](NC(=O)CCCCCCCCCCCCCCCN=[N+]=[N-])C(=O)O)C(N)=O)[C@@H](C)O
# B3: PEP13 (peptide)
# peptide: H[dS]QGTFTSDK([γGlu-γGlu-Palmitoyl])SKYLDSRRAHDFV[Lys(N3)]WLLNT-NH2
# modifications: N-terminus assumed
# SMILES: CCCCCCCCCCCCCCCC(=O)N[C@@H](CCC(=O)N[C@@H](CCC(=O)NCCCC[C@H](NC(=O)[C@H](CC(=O)O)NC(=O)[C@H](CO)NC(=O)[C@@H](NC(=O)[C@H](Cc1ccccc1)NC(=O)[C@@H](NC(=O)CNC(=O)[C@H](CCC(N)=O)NC(=O)[C@@H](CO)NC(=O)[C@@H](N)Cc1c[nH]cn1)[C@@H](C)O)[C@@H](C)O)C(=O)N[C@@H](CO)C(=O)N[C@@H](CCCCN)C(=O)N[C@@H](Cc1ccc(O)cc1)C(=O)N[C@@H](CC(C)C)C(=O)N[C@@H](CC(=O)O)C(=O)N[C@@H](CO)C(=O)N[C@@H](CCCNC(=N)N)C(=O)N[C@@H](CCCNC(=N)N)C(=O)N[C@@H](C)C(=O)N[C@@H](Cc1c[nH]cn1)C(=O)N[C@@H](CC(=O)O)C(=O)N[C@@H](Cc1ccccc1)C(=O)N[C@H](C(=O)N[C@@H](CCCCN=[N+]=[N-])C(=O)N[C@@H](Cc1c[nH]c2ccccc12)C(=O)N[C@@H](CC(C)C)C(=O)N[C@@H](CC(C)C)C(=O)N[C@@H](CC(N)=O)C(=O)N[C@H](C(N)=O)[C@@H](C)O)C(C)C)C(=O)O)C(=O)O
# B4: PEP21 (peptide)
# peptide: HXQGTFTSDKSKYLDXRAAQDFVQWLLDTKK
# modifications: Aib (U) at 2 and 16; Lys 10 K(γEγEC16); Lys 31 K(PEG2PEG2-C5N3); C-terminal amide
# Key:
# [1] = target: human glucagon receptor (human, UniProt P47871 26-477); test: cell-based or functional assay
# [2] = target: human GLP-1 receptor (human, UniProt P43220 24-463); test: cell-based or functional assay
Binder,hGCGR_EC50 (cAMP activity assay) [1] [nM],hGLP1R EC50 (cAMP activity assay) [2] [nM]
B1,0.39,0.06
B2,0.17,0.16
B3,0.04,0.1
H[dS]QGTFTSDK([γGlu-γGlu-Palmitoyl])SKYLDERAAK([AEEA-AEEA-C5N3])DFVQWLLDT-NH2 [PEP17],0.06,0.05
HXQGTFTSDKSKYLDERAAQDFVKWLLDT (D-Ser (s) at 2; Lys 10 K(γEγEC16); Lys 24 K(PEG2-C5N3); C-terminal amide) [PEP14],0.05,0.07
B4,0.08,0.07
H[dS]QGTFTSDK([γGlu-γGlu-Palmitoyl])SKYLDERAAK([AEEA-C5N3])DFVQWLLDT-NH2 [PEP16],0.05,0.06
HXQGTFTSDYSKYLDERAAQDFVKWLLDT (D-Ser (s) at 2; Lys 24 K(PEG2PEG2γE-C16N3); C-terminal amide) [PEP25],0.04,0.05
H[Aib]QGTFTSDK([γGlu-γGlu-Palmitoyl])SKYLD[Aib]RAAQDFVQWLLDTKK([AEEA-C5N3])-NH2 [PEP20],0.1,0.05
H[dS]QGTFTSDYSKYLDERAAK([AEEA-AEEA-γGlu-C16N3])DFVQWLLDT-NH2 [PEP26],0.12,0.12
H[Aib]QGTFTSDYSKYLDARAAK([AEEA-AEEA-γGlu-C18 diacid])DFV[Lys(N3)]WL[Met(O2)]DT-NH2 [PEP30],2.27,0.5
HXQGTFTSDKSKYLDERAAQDFVXWLLDT (D-Ser (s) at 2; Lys 10 K(PEG2PEG2γEC18-OH); Nle(εN3) at 24; C-terminal amide) [PEP29],3.26,3.28
